Laboratory results taken from publication PMC7261417.

Target: T1, aquaporin-Z, P60844
T1 chain: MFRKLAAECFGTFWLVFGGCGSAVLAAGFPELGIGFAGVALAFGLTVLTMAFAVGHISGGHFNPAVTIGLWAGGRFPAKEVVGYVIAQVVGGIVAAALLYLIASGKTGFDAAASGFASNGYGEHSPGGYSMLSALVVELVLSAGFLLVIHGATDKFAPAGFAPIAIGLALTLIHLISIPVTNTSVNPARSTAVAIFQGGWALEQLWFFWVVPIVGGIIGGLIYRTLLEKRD
Test: native MS
Details: remark: other sources report otherwise

B1: aquaporin-Z, P60844 1-231 (natural protein)
chain: T1 chain
modifications: here or on the partner: multiple N-terminal formylation modifications; multiple N-terminal formylation modifications
B1 gave a stoichiometry N of 4.
